{"source": "the nanobody polyreactivity screen of Harvey et al. (2022)"}
{"experiment": "yeast display, Sf9 membrane polyspecificity reagent, FACS + sequencing; frameworks hold sequencing errors", "summary_of_the_method": "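A nanobody's polyreactivity label depends on the gate it was sorted from. Yeast display cells were stained with 10% biotinylated, detergent-solubilized Sf9 membrane reagent for 1 hour at 4 °C, enriched on streptavidin microbeads and sorted by FACS. The low and high (top ~1%) gates were set on anti-HA fluorescence for expression and streptavidin fluorescence for reagent binding.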"}
{"sequence": "QVQLVESGGGLVQAGGSLRLSCAASGRIFYINAMGWYRQAPGKEWELVAGITRSGGSTYYADSVKGRFTISRDNAKNTVYLQMNSLKPEDTAVYYCNAGRYARQHSRYDYWGQGTQVTVSS", "polyreactivity (PSR sort gate)": "high polyreactivity"}
{"sequence": "QVQLVESGGGLVQAGGSLRLSCAASGRIFYIYAKGWYRPAPGKERELVAASTNGGSTNYAHSVKGRFTISRDNAKNTVYLQMNSLKPEDTEVYYCATDYVGYSFGMYYWGEGTQVTVSS", "polyreactivity (PSR sort gate)": "low polyreactivity"}
{"sequence": "QVQLVESGGGLVQAGGSLRLSCAASGRIFYLYAMGWYRQAPGKERELVASINSGDSTHYADSVKGRFTISRDNAKNTVYLQMNSLKPEDTAVYYCATRRYTRSRWYDYWGQGTQVTVSS", "polyreactivity (PSR sort gate)": "low polyreactivity"}
{"sequence": "QVQLVESGGGLVQAGGSLRLSCAASGRIFYNYAMGWSRQAPGKERELVAAISGSGGSTYYADSVKGRFTISRDNAKNTVYLQMNSLKPEDTAVYYCSTSGPQYYSRNFDYWGQGTQVTVSS", "polyreactivity (PSR sort gate)": "low polyreactivity"}
{"sequence": "QVQLVESGGGLVQAGGSLRLSCAASGRIFYPNAMGWYRQAPGQERELVAAISLSAGSTYYADSVKGRFTISRDNAKNTVSLQMNSLKPEDTAVYYCATQGNSPRGTRRYGYWGQGTQVTVSS", "polyreactivity (PSR sort gate)": "high polyreactivity"}
{"sequence": "QVQLVESGGGLVQAGGSLRLSCAASGRIFYPYAMGWYRQAPGIERELVAAIDKGGGSTYYADSVKGRFSISRDNAKNTVYVQMNSLKPEDTAVYYCAAGWEYPYDYWGQGTQVTVSS", "polyreactivity (PSR sort gate)": "low polyreactivity"}
{"sequence": "QVQLVESGGGLVQAGGSLRLSCAASGRIFYPYAMGWYRQAPGKERELVAAINWSGDRTYYADSVKGRFTISRDNAKNTVYLQMNSLKPEDTAVYYCAAVYFTRSSGRRYDYWGQGTQVTVSS", "polyreactivity (PSR sort gate)": "high polyreactivity"}
{"sequence": "QVQLVESGGGLVQAGGSLRLSCAASGRIFYPYAMGWYRQAPGKERELVAAIRWGGGSTYADSVKGRFTISRDNAKNTVYLQMNSLKPEDTAVYYCAAKSYPYYGYPGAYDYWGQGTQVTVSS", "polyreactivity (PSR sort gate)": "low polyreactivity"}
{"sequence": "QVQLVESGGGLVQAGGSLRLSCAASGRIFYPYAMGWYRQAPGKERELVAAITSGGSTYYADSVKGRFTISRDNAKNTVYFQMNSLKPEDTAVYYCAADVVDLYLLDYWGQGTQVTVSS", "polyreactivity (PSR sort gate)": "low polyreactivity"}
{"sequence": "QVQLVESGGGLVQAGGSLRLSCAASGRIFYPYAMGWYRQAPGKERELVARITWTTTSTYYADSVKGRFTISRDNAKNTVYLQMNSLKPDDTAVYYCAADGRVRTWGNLRDYWGQGTQVTVSS", "polyreactivity (PSR sort gate)": "high polyreactivity"}
{"sequence": "QVQLVESGGGLVQAGGSLRLSCAASGRIFYPYAMGWYRQAPGTERELVAAISYSGGSTFYADSVKGRFTISRDNAKNTVYFQMNSLKPEDTAVYFCNKVWFARYWYRDFDYWGQGTQVTVSS", "polyreactivity (PSR sort gate)": "high polyreactivity"}
{"sequence": "QVQLVESGGGLVQAGGSLRLSCAASGRIFYPYSMGWYRQAPGKERELVAAIRRSGVDTYYADSVKGRFTISRDNAKNTVYLQMNSLKPEDTAVYYCAADPYWFFPHYDSWGQGTQVTVSS", "polyreactivity (PSR sort gate)": "low polyreactivity"}
{"sequence": "QVQLVESGGGLVQAGGSLRLSCAASGRIFYPYTMGWYRQAPGKERELVAAISSGSRTNYADSVKGRFTISRDNAKNTVYLQMNSLKPEDTAVYYCAAAAYSYKRVYQTFTFGYWGQGTQVTVSS", "polyreactivity (PSR sort gate)": "high polyreactivity"}
{"sequence": "QVQLVESGGGLVQAGGSLRLSCAASGRIFYPYVMGWYRQAPGKERELVAAISDSTGSTYYADSVKGRFTISRDNAKNTVYLQMNSLKPEDTAVYYCAAGWFYATYWRFYYWGQGTLVTVSS", "polyreactivity (PSR sort gate)": "low polyreactivity"}
{"sequence": "QVQLVESGGGLVQAGGSLRLSCAASGRIFYQNAMGWSRPAPGKERELVAGITRGGSTYYADSVKGRFTISRDNAKNTVYLQMNSLKPEDTAVYYCAVAFWRTKWYDYWGQGTQVTVSS", "polyreactivity (PSR sort gate)": "low polyreactivity"}
{"sequence": "QVQLVESGGGLVQAGGSLRLSCAASGRIFYQNAMGWYRPAPGKERELVADISSGGSTYYADSVKGRFTISRDNAKNTVYLQMNSVKPEDTAVYYCHTPSGPGTVGSYRRKWYGYWGQGTQVTVSS", "polyreactivity (PSR sort gate)": "low polyreactivity"}
{"sequence": "QVQLVESGGGLVQAGGSLRLSCAASGRIFYQYAMGWYRQAPGKEREFVAAISISGTSTYADSVKGRFTISRDNAKNTVYLQMNSLIPEDTAFYYCNVGPRAGWYRSNYDYWGQGTQVTVSS", "polyreactivity (PSR sort gate)": "low polyreactivity"}
{"sequence": "QVQLVESGGGLVQAGGSLRLSCAASGRIFYQYVMGWYRQAPGKDRELVAAISRRGGSTYYADSVKGRFTISRDNAKNTVYLQMNSLKPEDTAVYYCAARRRYRRHRYDYWGQGTQVTVSS", "polyreactivity (PSR sort gate)": "high polyreactivity"}
{"sequence": "QVQLVESGGGLVQAGGSLRLSCAASGRIFYRNAMGWYRQAPAKERELVAAISWSGGRTYYADSVKGRFTISRDNAKNTVYLQMNSLKPEDTAVYYCNARTGYYTGQYDYWGQGTQVTVSS", "polyreactivity (PSR sort gate)": "high polyreactivity"}
{"sequence": "QVQLVESGGGLVQAGGSLRLSCAASGRIFYRNAMGWYRQAPGKEREFVAAISSGGSTYYADSVKGRFTISRDNAKNTVYLQMNSLKPEDTAVYYCATRSPERRVYYTYSGLFDYWGQGTQVTVSS", "polyreactivity (PSR sort gate)": "high polyreactivity"}
{"sequence": "QVQLVESGGGLVQAGGSLRLSCAASGRIFYRNVMGWYRQAPGKERELVAAISYRGGSTSYADSVKGRFTISRDNAKNTVYLQMYSLKPEDTAVYYCNAGRIRPAYSDREYWGQGTQVTVSS", "polyreactivity (PSR sort gate)": "low polyreactivity"}
{"sequence": "QVQLVESGGGLVQAGGSLRLSCAASGRIFYRYALGWYRQAPGKERELVAVITSSGGRTYYADSVKGRFTISRDNAKNTVYLQMNSLKPEDTAVYYCAATPVGSHYGNYYWGQGTQVTVSS", "polyreactivity (PSR sort gate)": "high polyreactivity"}
{"sequence": "QVQLVESGGGLVQAGGSLRLSCAASGRIFYRYAMGWSRPAHGKERELVASISGSGGRTYYADSVKGRFTISRDNAKNTVYLQMNSLKPEDTAVSYCAARIRPSYDWGQGTQVTVSS", "polyreactivity (PSR sort gate)": "high polyreactivity"}
{"sequence": "QVQLVESGGGLVQAGGSLRLSCAASGRIFYRYAMGWYRQAPGKERELVAAISSGGSTYADSVKGRFTISRDNAKNTVYLQMNSLKPEDTAVYFCAARLYTYPKGKYWGQGTQVTVSS", "polyreactivity (PSR sort gate)": "high polyreactivity"}
{"sequence": "QVQLVESGGGLVQAGGSLRLSCAASGRIFYRYAMGWYRQAPGKERELVATISSGGSTNYADSVKGRFTISRDNAKNTVYLQMNSLKPEDTAVYYCARQSLRYSYVSRDYWGLGTQVTVSS", "polyreactivity (PSR sort gate)": "low polyreactivity"}
{"sequence": "QVQLVESGGGLVQAGGSLRLSCAASGRIFYRYAMGWYRQAPGKERELVATITNGGSTNYADSVKGRFTISRDNAMITVYLQMNSLKPEDTAVYYCAASRSRYSVNCYNYWGQGTQVTLSS", "polyreactivity (PSR sort gate)": "high polyreactivity"}
{"sequence": "QVQLVESGGGLVQAGGSLRLSCAASGRIFYSNDMGWYRQAPGKERELVAGINYDGGSTYYADSVKGRFTISRDNPKNTVYLQINSLKPEDTAVNYCNVRQVGWFNTPGDYWGQGTQVTVSS", "polyreactivity (PSR sort gate)": "low polyreactivity"}
{"sequence": "QVQLVESGGGLVQAGGSLRLSCAASGRIFYSYAMGWYRQAPGKERELVAAISFSVGSTYYADSVKGRFTISRDNAKNTVYLQMNSLKPEDTAVYYCATGWYYTSTTYRSSDFDYWGQGTQVTVSS", "polyreactivity (PSR sort gate)": "low polyreactivity"}
{"sequence": "QVQLVESGGGLVQAGGSLRLSCAASGRIFYSYAMGWYRQAPGKERELVAAITESGGSTNYADSVKGRFTISRDNAKNTVYLQMNSLKPEDTEVYYCNARYKLTFNLYNYWGQGTQETVSS", "polyreactivity (PSR sort gate)": "low polyreactivity"}
{"sequence": "QVQLVESGGGLVQAGGSLRLSCAASGRIFYSYAMGWYRQAPGKERELVATISSAGSTYYADSVKGRFTISRDNAKNTVYLQMNSLKPEDTAVYYCAARRPRRYGFWGQGTQVTVSS", "polyreactivity (PSR sort gate)": "high polyreactivity"}
{"sequence": "QVQLVESGGGLVQAGGSLRLSCAASGRIFYSYARGWYRQAPGKERELVAAITESGGSTNYADSVKGRFTISRDNAKNSVYLQMNSLKPEDSAVYYCNARYKLTFNLYNYRGQGTQVTVSS", "polyreactivity (PSR sort gate)": "low polyreactivity"}
{"sequence": "QVQLVESGGGLVQAGGSLRLSCAASGRIFYSYGMGWYRQAPGKERELVATISIGGSTNYADSVKGRFTISRDNAKNTVYLQMNSLKPEDTAVYYCAARGGTLYSTRSYGYWGQGTQVTVSS", "polyreactivity (PSR sort gate)": "high polyreactivity"}
{"sequence": "QVQLVESGGGLVQAGGSLRLSCAASGRIFYSYTMGWYRQAPGKEREMVAGINRSVGSTYYADSVKGRFTISRDNAKNTVYLQMNSLKPEDTAVYYCAAGSRRRSYYTFSSVHGHYYWGQGTQVTVSS", "polyreactivity (PSR sort gate)": "high polyreactivity"}
{"sequence": "QVQLVESGGGLVQAGGSLRLSCAASGRIFYTYAKGLSRQAPRKERELVATISNSGGSTYYADSVKGRFTISRDNAKNTVYLQMNSLKPEDTAVYSCAKDERAAPSASYAYYYWGQGTLVTVSS", "polyreactivity (PSR sort gate)": "low polyreactivity"}
{"sequence": "QVQLVESGGGLVQAGGSLRLSCAASGRIFYVYAMGRYRQAPGKERELVAAINWSGDSTYYADSVKGRFTISRDNAKNTVYLQLNSLKPEDTAVYYCARARPTGYNYWGQGTQVTVSS", "polyreactivity (PSR sort gate)": "high polyreactivity"}
{"sequence": "QVQLVESGGGLVQAGGSLRLSCAASGRIFYVYAMGWYRQAPGKERELVADITRDGNTNYADSVKGRFTISRDNAKNTVYLQMNSLKPEDTAVYYCAAGGYPGTTYYGYDYWGQGTQVTVSS", "polyreactivity (PSR sort gate)": "low polyreactivity"}
{"sequence": "QVQLVESGGGLVQAGGSLRLSCAASGRIFYVYGMGWYRQAPGKERELVAAISKRGDNTYYADSVKGRFTISRDNAKNTVYLQMNSLKPEDTAVYYCAAKYNYSPRAGFNFWGQGTQVTVSS", "polyreactivity (PSR sort gate)": "high polyreactivity"}
{"sequence": "QVQLVESGGGLVQAGGSLRLSCAASGRIFYWNTMGWYRQAPGKEREFVAAILSRGDTTYYADSVKGRFTISRDNAKNTVYLQMNSLKPEDTAVYYCAARPVRYHYVPSMYYWGQGTQVTVSS", "polyreactivity (PSR sort gate)": "high polyreactivity"}
{"sequence": "QVQLVESGGGLVQAGGSLRLSCAASGRIFYWYAMGWYRQAPGKERELVATINSGGSTTYADSVKARFTISRDNAKNTVYLQMNSLKPEDTAVYYCARQRTVKKYYNWGQGTQVTVSS", "polyreactivity (PSR sort gate)": "high polyreactivity"}
{"sequence": "QVQLVESGGGLVQAGGSLRLSCAASGRIFYWYVMGWYRQAPGKERELVASISWSGGSTYYADSVKGRFTISRDNAKNTVYLQMNSLKPEDTAVYYCNAGSVYTVSLPGHPYDYWGQGTQVTVSS", "polyreactivity (PSR sort gate)": "low polyreactivity"}
{"sequence": "QVQLVESGGGLVQAGGSLRLSCAASGRIFYWYVMGWYRQAPGKERELVATIRYSGGNTYYADSVKGRFTISRDNAKNTVYLQMNSLKPEETEVYYCAAGSLYWGRSPTRGGQGGYWGQGTQVTVSS", "polyreactivity (PSR sort gate)": "high polyreactivity"}
{"sequence": "QVQLVESGGGLVQAGGSLRLSCAASGRIFYYNAMGWYREAPGKERELVAVITRSGGRTFYADSVKGRFTISRDNAKNTVYLQMNSLKPEDTAVYYCAARYRYYPVTTRGYYWGQGTQVTVSS", "polyreactivity (PSR sort gate)": "high polyreactivity"}
{"sequence": "QVQLVESGGGLVQAGGSLRLSCAASGRIFYYNAMGWYRPAPGKERELVAAITGDGTTDYADSVKGRFTISRDNAKNTVYLQMNSLKPEDTAVYYCNAPFRYVPPEGSGPYDYWGQGTQVTVSS", "polyreactivity (PSR sort gate)": "low polyreactivity"}
